Experimental data from article PMC10292035.

Target: E. cloacae Cap2 C109A/C548A (catalytically dead), untagged (Enterobacter cloacae)
Test: cryo-EM structure

Substance “E. cloacae Cap2 C109A/C548A (catalytically dead), untagged (enzyme)” has a stoichiometry N of 2.
